In paper PMC6294630:

Biological target: Wild-type placental protein 13/galectin-13 (Gal-13) (human) (UniProt Q9UHV8)

B1: Wild-type placental protein 13/galectin-13 (Gal-13) (natural protein)
chain: MSSLPVPYKLPVSLSVGSCVIIKGTPIHSFINDPQLQVDFYTDMDEDSDIAFRFRVHFGNHVVMNRREFGIWMLEETTDYVPFEDGKQFELCIYVHYNEYEIKVNGIRIYGFVHRIPPSFVKMVQVSRDISLTSVCVCN
hemagglutination of chicken erythrocytes, minimum agglutination concentration (MAC): 25 µg/mL
